Values quoted from earlier work, collected in paper PMC6868133 (Scientific Reports, 2019).
Read-outs that look alike come from different tables or passages of the source.

Key:
[1] = human, in vivo
[2] = rhesus monkey, in vivo, sc
[3] = tested on: fasting plasma glucose levels; conditions: humans
Source text: The goal of the current study was to evaluate the pharmacokinetic properties of a single-dose of PT320 in healthy nonhuman primates. […] Systemic Exenatide ...

[4] = Long-Acting (> 24 hr), ref supplement [3-5]

albiglutide
Half Life (T1/2) [4]: 140 to 170 h | T1/2 (long-acting GLP-1R agonists): 140 to 170 h

dulaglutide
Half Life (T1/2) [4]: 96 h | T1/2 (long-acting GLP-1R agonists): 96 h

lixisenatide
Half Life (T1/2) (Short-Acting (< 24 hr), ref supplement [1,2]): 3 h | T1/2 (short-acting GLP-1R agonist, administered once daily): 3 h

Semaglutide
Half Life (T1/2) [4]: 140 to 170 h

Exenatide
patients with higher-titer antibodies (≥625) [1]: 5% | patients with low anti-Exenatide antibody titers (≤125) [1]: 32% | terminal disappearance half-life from plasma [2]: 0.78 to 1.94 h | minimally effective concentration (level required to reduce fasting plasma glucose levels) [3]: approximately 50 pg/ml
